One data set addresses T1, GST-Cdc25C, P30307.
T1 chain: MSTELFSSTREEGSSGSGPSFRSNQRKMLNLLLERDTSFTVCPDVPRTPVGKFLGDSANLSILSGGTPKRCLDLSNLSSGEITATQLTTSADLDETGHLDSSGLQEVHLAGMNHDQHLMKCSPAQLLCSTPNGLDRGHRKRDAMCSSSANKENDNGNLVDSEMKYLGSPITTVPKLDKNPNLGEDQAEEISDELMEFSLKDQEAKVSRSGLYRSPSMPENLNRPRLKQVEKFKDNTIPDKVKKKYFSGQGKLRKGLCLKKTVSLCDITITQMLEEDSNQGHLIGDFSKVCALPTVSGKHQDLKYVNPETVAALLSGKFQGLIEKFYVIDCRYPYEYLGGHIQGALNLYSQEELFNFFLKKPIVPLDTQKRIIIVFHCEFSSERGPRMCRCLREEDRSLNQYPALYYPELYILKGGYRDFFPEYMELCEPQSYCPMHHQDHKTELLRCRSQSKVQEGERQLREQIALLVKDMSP

Sequence of 6his-Cdc2, P06493 (P06493 whole entry, looked up): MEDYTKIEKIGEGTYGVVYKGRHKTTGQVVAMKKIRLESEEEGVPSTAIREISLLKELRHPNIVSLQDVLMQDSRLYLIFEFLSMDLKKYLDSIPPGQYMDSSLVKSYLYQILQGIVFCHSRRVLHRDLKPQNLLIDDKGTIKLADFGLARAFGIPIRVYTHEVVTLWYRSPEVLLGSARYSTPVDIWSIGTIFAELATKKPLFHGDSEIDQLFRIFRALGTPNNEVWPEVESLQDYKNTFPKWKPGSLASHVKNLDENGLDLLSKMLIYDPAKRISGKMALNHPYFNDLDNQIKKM

B1: 6his-Chk1 (protein)
chain: MAVPFVEDWDLVQTLGEGAYGEVQLAVNRVTEEAVAVKIVDMKRAVDCPENIKKEICINKMLNHENVVKFYGHRREGNIQYLFLEYCSGGELFDRIEPDIGMPEPDAQRFFHQLMAGVVYLHGIGITHRDIKPENLLLDERDNLKISDFGLATVFRYNNRERLLNKMCGTLPYVAPELLKRREFHAEPVDVWSCGIVLTAMLAGELPWDQPSDSCQEYSDWKEKKTYLNPWKKIDSAPLALLHKILVENPSARITIPDIKKDRWYNKPLKKGAKRPRVTSGGVSESPSGFSKHIQSNLDFSPVNSASSEENVKYSSSQPEPRTGLSLWDTSPSYIDKLVQGISFSQPTCPDHMLLNSQLLGTPGSSQNPWQRLVKRMTRFFTKLDADKSYQCLKETCEKLGYQWKKSCMNQVTISTTDRRNNKLIFKVNLLEMDDKILVDFRLSKGDGLEFKRHFLKIKGKLIDIVSSQKIWLPAT
As to B1, in the data set with GST-Cdc25C, P30307, the “GST-Cdc25 phosphatase activity (loss of the slower migrating phosphorylated forms of Cdc2 on gel)” value is reported as “Prior phosphorylation of GST-Cdc25 by 6his-Chk1 leads to a dose-dependent reduction in GST-Cdc25 activity”; the “phosphorylation with gamma-32P ATP, SDS-PAGE and autoradiography” value is “GST-Cdc25 was phosphorylated by 6his-Chk1 and by 6his-hCDS1”.

B2: GST-Cdc25C (protein)
chain: MSTELFSSTREEGSSGSGPSFRSNQRKMLNLLLERDTSFTVCPDVPRTPVGKFLGDSANLSILSGGTPKRCLDLSNLSSGEITATQLTTSADLDETGHLDSSGLQEVHLAGMNHDQHLMKCSPAQLLCSTPNGLDRGHRKRDAMCSSSANKENDNGNLVDSEMKYLGSPITTVPKLDKNPNLGEDQAEEISDELMEFSLKDQEAKVSRSGLYRSPSMPENLNRPRLKQVEKFKDNTIPDKVKKKYFSGQGKLRKGLCLKKTVSLCDITITQMLEEDSNQGHLIGDFSKVCALPTVSGKHQDLKYVNPETVAALLSGKFQGLIEKFYVIDCRYPYEYLGGHIQGALNLYSQEELFNFFLKKPIVPLDTQKRIIIVFHCEFSSERGPRMCRCLREEDRSLNQYPALYYPELYILKGGYRDFFPEYMELCEPQSYCPMHHQDHKTELLRCRSQSKVQEGERQLREQIALLVKDMSP
On to B2, for which the “Cdc2 dephosphorylation by gel-mobility analysis” value in the data set with 6his-Cdc2, P06493 is reported as “GST-Cdc25 catalyses a reduction in the slower migrating phosphorylated forms of Cdc2”.

Source of the values: US20030017160.
